Earlier results as cited in paper PMC3238542.
Where two headings read alike, the source gives them in different places.

What was measured:
pyruvate carboxylase [1] = target: pyruvate carboxylase (UniProt P11498); test: enzyme inhibition
pyruvate carboxylase [2] = target: pyruvate carboxylase (UniProt P11498)

UniProt P11498, sequence (P11498 21-1178): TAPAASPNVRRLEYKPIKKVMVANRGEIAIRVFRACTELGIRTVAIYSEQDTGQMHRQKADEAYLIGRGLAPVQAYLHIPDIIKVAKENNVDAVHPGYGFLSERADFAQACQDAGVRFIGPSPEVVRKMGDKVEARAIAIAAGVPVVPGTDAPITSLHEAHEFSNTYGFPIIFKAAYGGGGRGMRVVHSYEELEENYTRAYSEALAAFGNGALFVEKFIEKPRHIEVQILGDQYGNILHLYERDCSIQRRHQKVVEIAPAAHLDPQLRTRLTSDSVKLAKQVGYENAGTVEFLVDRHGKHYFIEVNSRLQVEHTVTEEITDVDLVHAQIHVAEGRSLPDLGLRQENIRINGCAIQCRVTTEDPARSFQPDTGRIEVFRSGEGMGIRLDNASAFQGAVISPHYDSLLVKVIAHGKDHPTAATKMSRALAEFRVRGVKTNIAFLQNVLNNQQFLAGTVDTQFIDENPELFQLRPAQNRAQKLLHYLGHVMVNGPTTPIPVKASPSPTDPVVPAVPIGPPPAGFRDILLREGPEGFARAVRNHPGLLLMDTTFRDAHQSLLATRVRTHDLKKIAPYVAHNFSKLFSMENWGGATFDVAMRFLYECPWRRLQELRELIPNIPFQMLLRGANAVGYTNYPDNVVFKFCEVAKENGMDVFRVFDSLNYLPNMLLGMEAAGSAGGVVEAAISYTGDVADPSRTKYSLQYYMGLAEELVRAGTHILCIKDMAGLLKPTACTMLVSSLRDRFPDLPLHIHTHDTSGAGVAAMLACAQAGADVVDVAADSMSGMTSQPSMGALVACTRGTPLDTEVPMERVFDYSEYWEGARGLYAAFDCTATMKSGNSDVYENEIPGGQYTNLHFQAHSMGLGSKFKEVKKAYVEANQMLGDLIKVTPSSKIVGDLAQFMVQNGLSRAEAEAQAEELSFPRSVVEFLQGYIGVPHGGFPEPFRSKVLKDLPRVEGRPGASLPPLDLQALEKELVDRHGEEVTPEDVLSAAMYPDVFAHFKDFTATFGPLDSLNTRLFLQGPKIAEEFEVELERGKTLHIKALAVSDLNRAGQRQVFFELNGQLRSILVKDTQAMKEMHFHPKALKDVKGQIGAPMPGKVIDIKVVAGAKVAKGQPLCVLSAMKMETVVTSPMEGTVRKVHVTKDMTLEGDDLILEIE

Ki (pyruvate carboxylase [1]): 5 nM
Ki (pyruvate carboxylase [2]): 4 nM
Substance: prohibitin (Phb1) (from UniProt P35232)
